Measured values from patent US7422883.

Target: β6 Δ746-764 deletion mutant expressed in SW480 cells (human) (UniProt P06756)
Test: β6 immunoprecipitation (R6G9) from SW480 transfectants, blot with E10 (FIG. 27B)

Sequence of β6 Δ746-764 deletion mutant expressed in SW480 cells (human) (chain, as listed by the source mutant, chain 1 of 2): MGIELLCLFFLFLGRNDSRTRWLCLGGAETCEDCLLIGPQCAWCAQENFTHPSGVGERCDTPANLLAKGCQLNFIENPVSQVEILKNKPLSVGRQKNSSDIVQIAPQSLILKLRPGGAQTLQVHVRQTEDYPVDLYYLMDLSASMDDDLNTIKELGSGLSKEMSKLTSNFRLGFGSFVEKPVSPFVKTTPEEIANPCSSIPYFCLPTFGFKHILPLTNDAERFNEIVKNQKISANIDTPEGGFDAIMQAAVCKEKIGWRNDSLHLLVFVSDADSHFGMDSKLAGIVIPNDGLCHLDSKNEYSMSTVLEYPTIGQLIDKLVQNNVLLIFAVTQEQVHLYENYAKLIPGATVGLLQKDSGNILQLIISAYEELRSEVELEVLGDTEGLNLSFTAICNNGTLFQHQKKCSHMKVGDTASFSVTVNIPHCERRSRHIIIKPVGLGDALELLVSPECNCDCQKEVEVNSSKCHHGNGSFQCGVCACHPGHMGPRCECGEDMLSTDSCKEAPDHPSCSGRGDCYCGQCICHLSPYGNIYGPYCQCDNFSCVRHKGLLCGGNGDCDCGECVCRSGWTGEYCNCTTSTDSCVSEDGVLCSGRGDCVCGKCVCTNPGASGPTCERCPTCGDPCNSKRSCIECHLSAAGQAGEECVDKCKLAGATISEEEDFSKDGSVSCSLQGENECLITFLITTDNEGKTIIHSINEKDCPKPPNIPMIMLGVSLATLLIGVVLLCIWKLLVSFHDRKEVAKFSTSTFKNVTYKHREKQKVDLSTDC
Sequence of β6 Δ746-764 deletion mutant expressed in SW480 cells (human) (P06756 31-1048, stated change not applied, chain 2 of 2): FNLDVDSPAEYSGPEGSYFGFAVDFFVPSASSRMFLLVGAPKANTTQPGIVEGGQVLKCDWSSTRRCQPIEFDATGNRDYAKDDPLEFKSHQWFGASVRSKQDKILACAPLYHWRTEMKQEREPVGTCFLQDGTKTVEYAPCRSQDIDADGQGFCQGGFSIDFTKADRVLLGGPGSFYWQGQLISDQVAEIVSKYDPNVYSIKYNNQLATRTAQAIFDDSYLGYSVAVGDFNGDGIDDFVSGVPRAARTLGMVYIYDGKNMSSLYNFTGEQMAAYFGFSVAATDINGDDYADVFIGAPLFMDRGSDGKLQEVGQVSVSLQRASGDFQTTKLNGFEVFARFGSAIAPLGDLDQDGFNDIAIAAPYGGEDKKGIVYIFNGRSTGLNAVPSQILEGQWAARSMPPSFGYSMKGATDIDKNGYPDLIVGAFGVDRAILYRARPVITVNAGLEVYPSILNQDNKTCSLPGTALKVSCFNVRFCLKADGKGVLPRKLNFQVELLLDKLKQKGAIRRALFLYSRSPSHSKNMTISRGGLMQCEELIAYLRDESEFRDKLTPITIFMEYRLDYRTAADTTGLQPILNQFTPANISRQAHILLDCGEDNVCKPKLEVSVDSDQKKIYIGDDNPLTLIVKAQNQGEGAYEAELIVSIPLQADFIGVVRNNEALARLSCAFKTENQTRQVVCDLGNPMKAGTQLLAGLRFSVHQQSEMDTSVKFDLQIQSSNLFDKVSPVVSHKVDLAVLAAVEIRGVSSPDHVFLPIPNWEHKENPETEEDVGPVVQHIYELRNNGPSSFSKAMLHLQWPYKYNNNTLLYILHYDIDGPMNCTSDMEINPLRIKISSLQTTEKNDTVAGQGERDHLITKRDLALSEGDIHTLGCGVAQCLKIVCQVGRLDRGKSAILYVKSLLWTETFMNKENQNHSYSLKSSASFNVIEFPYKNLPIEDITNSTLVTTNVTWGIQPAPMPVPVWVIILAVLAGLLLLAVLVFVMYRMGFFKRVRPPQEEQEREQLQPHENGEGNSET

reduction of β6-bound ERK against the wild type receptor: > 75%
Substance: ERK (endogenous ERK1/2, band at the position of ERK2, in lysates of human cell lines) (from UniProt P28482 2-360)
